The values below come from patent publication US11491212.

What is called KM is the concentration of substrate that gives half-maximal velocity. For orientation: kcat means the maximal rate divided by the concentration of active sites. The kcat/KM is the turnover number divided by the Michaelis constant.

Factor X, P00742, sequence (P00742 whole entry, looked up): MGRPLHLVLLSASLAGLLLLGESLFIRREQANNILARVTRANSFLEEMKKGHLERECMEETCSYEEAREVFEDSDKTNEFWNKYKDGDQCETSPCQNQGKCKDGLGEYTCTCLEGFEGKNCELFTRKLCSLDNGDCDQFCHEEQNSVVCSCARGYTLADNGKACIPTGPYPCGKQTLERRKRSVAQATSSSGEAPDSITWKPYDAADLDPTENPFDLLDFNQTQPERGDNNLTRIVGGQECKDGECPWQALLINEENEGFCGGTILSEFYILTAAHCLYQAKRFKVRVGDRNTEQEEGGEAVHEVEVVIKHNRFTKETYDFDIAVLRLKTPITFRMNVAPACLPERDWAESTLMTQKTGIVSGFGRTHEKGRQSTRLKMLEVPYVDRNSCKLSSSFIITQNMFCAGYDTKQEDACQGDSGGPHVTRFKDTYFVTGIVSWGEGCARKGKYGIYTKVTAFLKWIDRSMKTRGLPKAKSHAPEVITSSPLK
Factor X (FX), P00742, sequence (P00742 whole entry, looked up): as above

B1: FIXa-Y155F/K247N/N249S/R318Y/T343R/R403E/E410N (protein)
chain 1: not shown
chain 2: not shown
On to B1, for which, in the data set with Factor X, P00742, the KM was determined as 0.0606 µM. In addition, the kcat in the data set with Factor X (FX), P00742 was found to be 9 s⁻¹.

B2: FIXa-R318Y/R338E/T343R/N346Y/R403E/E410N (protein)
chain 1: not shown
chain 2: not shown
Turning to B2, the kcat/KM with Factor X, P00742 turned out to be 3.1e+08 M⁻¹ s⁻¹. Also, in the data set with Factor X (FX), P00742, the KM is 0.0158 µM and the kcat stood at 4.6 s⁻¹.

B3: FIXa-R318Y/R338E/Y345A/R403E/E410N (protein)
chain 1: not shown
chain 2: not shown
For B3, in the data set with Factor X, P00742, the kcat/KM came to 8.3e+07 M⁻¹ s⁻¹. In the data set with Factor X (FX), P00742, the KM is 0.0188 µM and the catalytic constant (kcat) came to 1.4 s⁻¹.

B4: FIXa-R318Y/R338E/N346Y/R403E/E410N (protein)
chain 1: not shown
chain 2: not shown
For the protein B4, in the data set with Factor X, P00742, the kcat/KM is 1.2e+08 M⁻¹ s⁻¹. Also, in the data set with Factor X (FX), P00742, the KM worked out at 0.0281 µM and the kcat amounted to 3.4 s⁻¹.

B5: FIXa-D104N/K106S/R318Y/R338E/T343R/R403E/E410N (protein)
chain 1: not shown
chain 2: not shown
On to B5, for which, in the data set with Factor X, P00742, the catalytic efficiency (kcat/KM) worked out at 2.2e+08 M⁻¹ s⁻¹. In the data set with Factor X (FX), P00742, the KM amounted to 0.0266 µM and the kcat stood at 5.7 s⁻¹.

B6: FIXa-K247N/N249S/R318Y/R338E/T343R/E410N (protein)
chain 1: not shown
chain 2: not shown
With B6, the KM with Factor X, P00742 was found to be 0.0328 µM. The kcat with Factor X (FX), P00742 was 8.8 s⁻¹.

B7: FIXa-R318Y/R338E/T343R/N346D/R403E/E410N (protein)
chain 1: not shown
chain 2: not shown
B7: in the data set with Factor X, P00742, the kcat/KM came to 8.2e+07 M⁻¹ s⁻¹. In addition, in the data set with Factor X (FX), P00742, the Michaelis-Menten constant (KM) came out at 0.067 µM and the kcat amounted to 5.4 s⁻¹.

B8: FIXa-Y155F/K247N/N249S/R338E/E410N (protein)
chain 1: not shown
chain 2: not shown
With B8, the KM with Factor X, P00742 is 0.0177 µM. The kcat with Factor X (FX), P00742 came out at 7.3 s⁻¹.

B9: FIXa-K247N/N249S/R318Y/T343R/R403E/E410N (protein)
chain 1: not shown
chain 2: not shown
With B9, the KM with Factor X, P00742 was 0.0805 µM. Besides, in the data set with Factor X (FX), P00742, the kcat was 9.5 s⁻¹.
